Results taken from article PMC6240786.

What was measured:
[1] = molecular target: Streptomyces clavuligerus cucumene synthase, wild-type (Streptomyces clavuligerus); experiment: crystal structure
[2] = molecular target: T181N cucumene synthase (Streptomyces clavuligerus); experiment: crystal structure

Substance: Streptomyces clavuligerus cucumene synthase, wild-type (enzyme)
- stoichiometry N [1]: 2

Substance: T181N cucumene synthase (enzyme)
- stoichiometry N [2]: 2
